B1: She1-NLS^SV40-HaloTag (other)
chain: MNDKLQEEHNEKDTTSQINGFTPPHMSIDFHSNNNSNIIETIGVSKRLGNSVLSELDSRASSKFEFLKDQSEQQYNGDKNNEPKSGSYNINEFFQAKHDSQFGQMESLDTHYTLLHTPKRKSQHAIPQDRSDSMKRSRPSRSIPYTTPVVNDITRRIRRLKLRNSLVNGNDIVARARSMQANSNINSIKNTPLSKPKPFMHKPNFLMPTTNSLNKINSAHRNTSSSSTASSIPRSKVHRSISIRDLHAKTKPVERTPVAQGTNSQLKNSVSVFDRLYKQTTFSRSTSMNNLSSGTSAKSKEHTNVKTRLVKSKTSGSLSSNLKQSTATGTKSDRPIWRGSGSAAAPKKKRKVG
modifications: HaloTag-TMR ligand on the HaloTag
B2: She1-HaloTag^TMR (wild-type She1) (natural protein, budding yeast, UniProt P38200 1-338, looked up)
chain: MNDKLQEEHNEKDTTSQINGFTPPHMSIDFHSNNNSNIIETIGVSKRLGNSVLSELDSRASSKFEFLKDQSEQQYNGDKNNEPKSGSYNINEFFQAKHDSQFGQMESLDTHYTLLHTPKRKSQHAIPQDRSDSMKRSRPSRSIPYTTPVVNDITRRIRRLKLRNSLVNGNDIVARARSMQANSNINSIKNTPLSKPKPFMHKPNFLMPTTNSLNKINSAHRNTSSSSTASSIPRSKVHRSISIRDLHAKTKPVERTPVAQGTNSQLKNSVSVFDRLYKQTTFSRSTSMNNLSSGTSAKSKEHTNVKTRLVKSKTSGSLSSNLKQSTATGTKSDRPIWR
modifications: HaloTag-TMR ligand on the HaloTag

Target: yeast microtubules (assembled from tubulin purified from yeast, Tub1/Tub2-6His) (yeast, UniProt P09733 1-447; P02557 1-457)
Sequence (P09733 whole entry, chain 1 of 2): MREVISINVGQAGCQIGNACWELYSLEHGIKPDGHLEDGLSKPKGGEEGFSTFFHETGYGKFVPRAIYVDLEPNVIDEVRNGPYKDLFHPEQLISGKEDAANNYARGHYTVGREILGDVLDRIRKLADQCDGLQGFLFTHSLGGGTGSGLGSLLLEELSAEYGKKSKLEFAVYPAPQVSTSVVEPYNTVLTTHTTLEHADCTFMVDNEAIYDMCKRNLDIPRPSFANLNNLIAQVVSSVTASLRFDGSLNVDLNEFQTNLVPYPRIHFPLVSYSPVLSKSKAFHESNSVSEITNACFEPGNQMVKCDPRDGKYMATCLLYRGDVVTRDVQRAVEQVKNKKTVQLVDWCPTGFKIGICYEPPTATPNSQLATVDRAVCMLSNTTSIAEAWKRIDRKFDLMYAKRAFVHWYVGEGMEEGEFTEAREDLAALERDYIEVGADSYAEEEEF
Sequence (P02557 whole entry, chain 2 of 2): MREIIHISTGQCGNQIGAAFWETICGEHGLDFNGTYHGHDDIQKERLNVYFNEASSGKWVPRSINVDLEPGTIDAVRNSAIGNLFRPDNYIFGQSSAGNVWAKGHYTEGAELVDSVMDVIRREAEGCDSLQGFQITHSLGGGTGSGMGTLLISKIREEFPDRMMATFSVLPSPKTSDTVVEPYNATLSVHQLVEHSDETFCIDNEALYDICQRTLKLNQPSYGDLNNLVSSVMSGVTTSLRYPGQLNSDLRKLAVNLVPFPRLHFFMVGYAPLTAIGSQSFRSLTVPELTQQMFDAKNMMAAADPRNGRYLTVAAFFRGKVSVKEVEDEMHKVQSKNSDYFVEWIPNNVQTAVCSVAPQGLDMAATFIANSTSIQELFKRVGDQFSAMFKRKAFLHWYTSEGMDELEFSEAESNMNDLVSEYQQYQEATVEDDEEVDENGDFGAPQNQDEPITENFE
Assay: TIRF microscopy-based microtubule-binding assay

Binder | Kd [nM]
B1 | 806
B2 | 854

Reference: doi:10.1101/2021.02.02.429374 (bioRxiv, 2021)
